Source: the supplement of paper PMC7125110
± gives the standard error. For some of these results: This sample holds only a part of the variants without activity.

B1: glmS ribozyme (parent)
chain: AUAAAAGCGCCAGAACUACAGAAAUGUAGUUGACGAGGAGGAGGUUUAUCGAAUUUUCGGCGGAUGCCUCCAAA

Columns and labels:
Conditions in all cases: with glucosamine-6-phosphate
glucosamine-6-phosphate [1] = variants of: B1; experiment: kcat; higher = faster cleavage; RNA array
How it was run: (§1)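 Over ~14 h at 37 °C, tiles were imaged as glucosamine-6-phosphate (40 μM to 10 mM) in HEPES/KCl/Mg(OAc)2 buffer flowed across sequenced MiSeq chips. The chips carried barcoded ribozyme variants transcribed in situ by E. coli RNA polymerase and tracked with a hybridised Cy3 probe. After normalisation to baseline and to non-cleaving reference variants, one- or two-exponential decay fits of per-tile medians gave kobs. kcat and KM followed from weighted Michaelis–Menten fits across concentrations.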

glucosamine-6-phosphate [2] = variants of: B1; experiment: self-cleavage kobs at 640 uM GlcN6P; higher = faster cleavage; RNA array
How it was run: as §1

glucosamine-6-phosphate [3] = variants of: B1; experiment: self-cleavage kobs at 2500 uM GlcN6P; higher = faster cleavage; RNA array
How it was run: as §1

glucosamine-6-phosphate [4] = variants of: B1; experiment: self-cleavage kobs at 10000 uM GlcN6P; higher = faster cleavage; RNA array
How it was run: as §1

glucosamine-6-phosphate [5] = variants of: B1; experiment: KM; higher = weaker cofactor use; RNA array
How it was run: as §1

glucosamine-6-phosphate [6] = variants of: B1; experiment: self-cleavage kobs at 40 uM GlcN6P; higher = faster cleavage; RNA array
How it was run: as §1

glucosamine-6-phosphate [7] = variants of: B1; experiment: self-cleavage kobs at 160 uM GlcN6P; higher = faster cleavage; RNA array
How it was run: as §1

Row | Variant | kcat (glucosamine-6-phosphate [1]) [s⁻¹] | self-cleavage kobs at 640 uM GlcN6P (glucosamine-6-phosphate [2]) [s⁻¹] | self-cleavage kobs at 2500 uM GlcN6P (glucosamine-6-phosphate [3]) [s⁻¹] | self-cleavage kobs at 10000 uM GlcN6P (glucosamine-6-phosphate [4]) [s⁻¹] | KM (glucosamine-6-phosphate [5]) [µM] | self-cleavage kobs at 40 uM GlcN6P (glucosamine-6-phosphate [6]) [s⁻¹] | self-cleavage kobs at 160 uM GlcN6P (glucosamine-6-phosphate [7]) [s⁻¹]
1 | C16A U31C | 0.000468 ± 0.00021 | 6.72e-05 ± 1.1e-05 | 0.000139 ± 2.8e-05 | 0.000418 ± 0.00011 |  |  | 
2 | C16A A42G | 0.00215 ± 0.00056 | 0.00062 ± 0.00012 | 0.00103 ± 0.0002 | 0.00165 ± 0.00043 | 2550 ± 900 | 3.27e-05 ± 1.1e-05 | 0.000111 ± 2.3e-05
3 | C16U A64G | 0.018 ± 0.0074 | 0.00457 ± 0.00072 | 0.0111 ± 0.0028 | 0.0176 ± 0.0031 |  | 0.000665 ± 7.5e-05 | 0.00126 ± 0.00023
4 | C16A A33U | 1.2e-05 ± 3e-06 |  |  |  |  | < 1e-05 | < 1e-05
5 | C16U A53G | 0.0256 ± 0.012 | 0.0112 ± 0.0028 | 0.013 ± 0.0042 | 0.0282 ± 0.0061 |  | 0.00111 ± 0.00015 | 0.00153 ± 0.00061
6 | C16A A52G | 0.000129 ± 7.4e-06 | 6.18e-05 ± 2.3e-05 | 0.000102 ± 1.9e-05 | 0.000118 ± 1.9e-05 | 730 ± 180 |  | 
7 | C16A U54G | 0.00103 ± 0.0004 | 0.00029 ± 4.8e-05 | 0.000532 ± 9.9e-05 | 0.00141 ± 0.00027 |  | 4.66e-05 ± 1e-05 | 9.7e-05 ± 1.9e-05
8 | C16A G51A | < 1e-05 |  |  | < 1e-05 | 632 ± 220 |  | 
9 | C16G G40C | 0.0003 ± 2.6e-05 | 8.17e-05 ± 2e-05 | 0.000212 ± 5.8e-05 | 0.000252 ± 3.6e-05 | 1660 ± 360 |  | 
10 | C16G G41U | 0.000139 ± 1.4e-05 |  | 7.39e-05 ± 1.7e-05 | 0.000107 ± 1.5e-05 | 2720 ± 780 |  | 
11 | C16G U31C | 0.000606 ± 0.00011 | 8.88e-05 ± 1.7e-05 | 0.000269 ± 4.6e-05 | 0.000401 ± 0.00011 | 3720 ± 980 |  | 
12 | C16G U31G | 0.000843 ± 0.00018 | 0.000186 ± 4.5e-05 | 0.000366 ± 0.0001 | 0.00071 ± 0.0001 | 2360 ± 940 | 4.37e-05 ± 1.7e-05 | 4.98e-05 ± 1.6e-05
13 | C16G U45G | 0.000908 ± 7.3e-05 | 0.000199 ± 3.8e-05 | 0.000466 ± 0.00011 | 0.000718 ± 9.7e-05 | 2510 ± 380 |  | 4.29e-05 ± 1.9e-05
14 | C16A G32C | 9.38e-05 ± 2.3e-06 | 3.44e-05 ± 1.6e-05 | 5.99e-05 ± 1.7e-05 | 8.41e-05 ± 1e-05 | 1220 ± 140 |  | 
15 | C16A G32A | 0.0012 ± 0.00043 | 0.000229 ± 0.00011 |  | 0.000787 ± 0.00012 |  |  | 
16 | C16G G32U | 0.000915 ± 8.9e-05 | 0.000144 ± 3.7e-05 | 0.00032 ± 8.7e-05 | 0.00068 ± 0.00011 | 3800 ± 700 |  | 
17 | C16G G32A | 0.0013 ± 0.00037 | 0.0003 ± 5.5e-05 | 0.000434 ± 0.00011 | 0.00115 ± 0.00018 | 2870 ± 1300 |  | 7.04e-05 ± 1.7e-05

Row | Variant | kcat (glucosamine-6-phosphate [1]) [s⁻¹] | self-cleavage kobs at 640 uM GlcN6P (glucosamine-6-phosphate [2]) [s⁻¹] | self-cleavage kobs at 2500 uM GlcN6P (glucosamine-6-phosphate [3]) [s⁻¹] | self-cleavage kobs at 10000 uM GlcN6P (glucosamine-6-phosphate [4]) [s⁻¹] | KM (glucosamine-6-phosphate [5]) [µM] | self-cleavage kobs at 40 uM GlcN6P (glucosamine-6-phosphate [6]) [s⁻¹] | self-cleavage kobs at 160 uM GlcN6P (glucosamine-6-phosphate [7]) [s⁻¹]
18 | C16A U46C | 6.68e-05 ± 1.4e-05 |  | 5.11e-05 ± 1.4e-05 | 5.46e-05 ± 1e-05 |  | < 1e-05 | 
19 | C16A U46A | 7.31e-05 ± 2e-06 |  | 6.28e-05 ± 2e-05 | 6.82e-05 ± 1.6e-05 | 547 ± 78 |  | 
20 | C16G A53C | 0.000746 ± 0.0001 | 0.000233 ± 6.3e-05 | 0.000524 ± 0.00012 | 0.000599 ± 0.0001 | 1750 ± 490 |  | 4.82e-05 ± 2.3e-05
21 | C16A C67A | 0.000254 ± 2.7e-05 | 0.000123 ± 1.2e-05 | 0.00021 ± 3.3e-05 | 0.000248 ± 2.9e-05 | 598 ± 150 |  | 6.97e-05 ± 1.3e-05
22 | C16G U30G | 0.000352 ± 3e-05 | 4.35e-05 ± 1.3e-05 | 0.000146 ± 2.8e-05 | 0.000246 ± 3.2e-05 | 4110 ± 700 |  | 
23 | A15U U57G C58U C70A | 6.42e-05 ± 1.8e-05 | 9.48e-05 ± 3.5e-05 | 7.42e-05 ± 2e-05 |  |  |  | 4.86e-05 ± 1.7e-05
24 | C16A G62A | < 1e-05 |  |  |  |  |  | < 1e-05
25 | C16G U56C | 0.000431 ± 6.4e-05 |  | 0.000276 ± 4.5e-05 | 0.000354 ± 3.8e-05 |  |  | 
26 | C16G A39G | 0.0108 ± 0.0041 | 0.00194 ± 0.00038 | 0.00841 ± 0.0019 | 0.00779 ± 0.0013 |  | 0.000228 ± 4.9e-05 | 0.000353 ± 0.00011
27 | C16G U65A | 0.000589 ± 6.3e-05 | 0.000107 ± 1.4e-05 | 0.00027 ± 6.5e-05 | 0.00045 ± 4.9e-05 | 3010 ± 580 |  | 
28 | C16A G63C | < 1e-05 |  |  |  |  |  | < 1e-05
29 | C16A C70G | 4.18e-05 ± 5e-06 | 3.86e-05 ± 1.5e-05 | 5.28e-05 ± 1e-05 | 3.56e-05 ± 7.5e-06 |  |  | 
30 | C16A G40A | 0.000202 ± 6.3e-05 |  | 0.000155 ± 2.1e-05 | 0.000154 ± 2.9e-05 |  |  | 
31 | C16U A36U | < 1e-05 |  |  |  |  |  | 
32 | C16U A42U | 0.000129 ± 1e-05 | 4.79e-05 ± 1.9e-05 | 0.000107 ± 2.2e-05 | 0.000115 ± 1.7e-05 | 903 ± 300 |  | 
33 | C16A U65C | 2.42e-05 ± 3.7e-08 |  |  |  | 654 ± 8.5 |  | 
